Test results from PMC11410670, “Growth of complete ammonia oxidizers on guanidine” (Nature, 2024).

Assays:
[1] = target: Nitrospira inopinata guanidinase (Nitrospira inopinata); assay: SEC-MALS; Superdex 200 Increase 10/300 GL, 20 °C, 20 mM HEPES, 150 mM NaCl, pH 7.4; 80 µl injected at 1 mg/ml; hexamer in solution
[2] = substrate: N=C(N)N; assay: urea production, thiosemicarbazide-diacetylmonoxime colorimetry, Michaelis-Menten fit; format: biochemical, Candidatus Nitrospira inopinata; details: pH 7.5, 37 °C, 20 mM Tris-HCl, 50 mM NaCl, enzyme expressed with 1 mM NiSO4 and assayed with 1 mM Ni2+

stoichiometry N [1] | Molecule | Km [2] [mM]
6 | Nitrospira inopinata guanidinase (enzyme) | 
 | N. inopinata guanidinase (Candidatus Nitrospira inopinata) (protein, full-length, N-terminal His6-MBP tag (pCoofy4) cleaved with HRV-3C; E. coli; homohexamer 240 kDa; Ni/Mn; N-terminus from primer MAKKRTY; residues T105, H182, D207, H209, D211, H222, D299, D301, W313, E344) MAKKRTYQGKVPLHDNYGPEAKYAVEAEALLPTTKFEEEIARGLELGLPGADSIKDRRIPTFSRGELPHFAGINTFIKAPYVEDVRKCGQYDVAILGAPFDGGTTYRAGTRFGPQGIRKISALYGTYSFELGVDLRESVSICDVGDIFTIPGNIEKTFDQVSKGVGHVFASGAFPVVLGGDHSLGFATVRGVAQHLNGKKLGILHFDRHVDTQDTDLDERMHTTPWFHATNIPNVPAKNLVQIGIGGWQAPRPGVKAGRERQTTIMTVTDCVEMGIENAAKQALEVAFDGVDAVWLSFDVDCLDAAFVPGTGWPEPGGFLPREVLKFLQIIADTKPLAGMEIVECAPPYDAAEITSLMATRVICDVLACQVRSGHLGNRKKR | 13.6 ± 0.76
